Key:
Experiment in all cases: SPR
[1] = biological target: UC1_(Full-length) (V1V2-containing UC1 gp120, HIV-2) with sCD4 (HIV-2 isolate UC1 gp120; human CD4, UniProt Q76638;PDB, strain)
[2] = biological target: CAP210–sCD4 complex (core CAP210 gp120 with sCD4) (HIV-1 clade C CAP210.2.00.E8 gp120; …, strain)
[3] = biological target: soluble CD4 (domains 1 and 2 from human CD4) (human)

B1: 21c Fab (Fab, V domains shown)
VH: QVQVVQSGAEVRKPGASVKVSCKVSGFTLTGLSIHWVRQAPGKGLEWMGGFGPEENEIIYAQKFQGRVSMTEDTSTNTAYMELSSLRSEDTAVYYCATGGNYYNLWTGYYPLAYWGQGTLVTVSS
VL: QSVLTQPPSVSAAPGQKVTISCSGSSSNIGKNYVSWYQQLPGAAPKLLIFDDTQRPSGIPDRFSGSKSGTSATLAITGLQTGDEADYYCGTWDSSLSTGQLFGGGTKLTVL
B1 was tested, and the binding result [1] was “binds”, the Kd [2] was 1600 nM and the Kd [3] was > 100000 nM.
